Laboratory results as given in patent US20140030274A1 (ALPHABETA, published 2014).

B1: Bri2 BRICHOS (recombinant human Bri2 BRICHOS construct as described in Peng et al. 2010) (other)
chain: GIKYIKDDVILNEPSADAPAALYQTIEENIKIFEEEEVEFISVPVPEFADSDPANIVHDFNKKLTAYLDLNLDKCYVIPLNTSIVMPPRNLLELLINIKAGTYLPQSYLIHEHMVITDRIENIDHLGFFIYRLCHDKETYKLQRRET
notes: also called Bri2 BRICHOS domain; BRICHOS protein
B2: proSP-C BRICHOS (recombinant human, His59 to Ile197 of proSP-C, Examples 4-8) (other)
chain: HMSQKHTEMVLEMSIGAPEAQQRLALSEHLVTTATFSIGSTGLVVYDYQQLLIAYKPAPGTCCYIMKIAPESIPSLEALNRKVHNFQMECSLQAKPAVPTSKLGQAEGRDAGSAPSGGDPAFLGMAVNTLCGEVPLYYI
notes: Expressed in E. coli, with the thioredoxin and His6-tag removed by thrombin; Gel filtration indicates a trimer at 0 h and monomers eluting with Aβ after 20 h; also called recombinant human proSP-C BRICHOS; BRICHOS protein
B3: CTproSP-C, the C-terminal domain of lung surfactant protein C precursor (residues 59-197 of human proSP-C) (other)
chain: B2 chain
notes: also called CTC; recombinant CTC
B4: crystallised proSP-C BRICHOS trimer (seleno-methionylated CTC after in situ proteolysis with trypsin, residues 82-160 and 168-197 of proSP-C) (other)
chain 1: LALSEHLVTTATFSIGSTGLVVYDYQQLLIAYKPAPGTCCYIMKIAPESIPSLEALNRKVHNFQMECSLQAKPAVPTSK
chain 2: DAGSAPSGGDPAFLGMAVNTLCGEVPLYYI
modifications: seleno-methionylated protein; seleno-methionylated protein; disulfide bridge Cys121-Cys189 to the second chain
notes: There are two trimers per asymmetric unit, and data extend to 2.1 Å; Residues about 149-180 are not modelled; also called crystallized protein

How the values were obtained:
Aβ(M1-40) [1] = biological target: Aβ(M1-40) (human); assay: cell-based or functional assay
Aβ(M1-42) = Aβ(M1-42) (human); assay: cell-based or functional assay
Aβ(M1-40) [2] = biological target: T1, Aβ(M1-40) (human); assay: estimate from peak shapes in gel filtration (intermediate exchange on the gel filtration time scale)
T1 construct: Expressed in E. coli from a synthetic gene, and the monomer was isolated by gel filtration; also called Aβ40; human Aβ1-40 peptide
Procedure: Samples were injected from a 1 mL loop and chromatograms recorded by monitoring the absorbance at 280 nm. To monitor protein interactions, mixtures of Aβ and BRICHOS domains were injected directly after mixing or after 2 or 20 hours incubation at 37° C. in 20 mM Na-phosphate, 200 μM EDTA, 0.02% NaN₃ at pH 7.4 or pH 8.0. Fractions (0.3-0.7 ml) were collected during the chromatogram, lyophilized and analyzed by SDS PAGE in a 10-20% gradient gel.
The interaction between the BRICHOS proteins and Aβ was studied using gel filtration. Samples of 8 μM Aβ40 and 0.8 μM proSP-C BRICHOS, or 8 μM Aβ40 and 0.8 μM Bri2 BRICHOS, were incubated for 20 hours at 37° C., followed by gel filtration on a Superdex75 column, and SDS PAGE analysis of collected fractions.
The 20 h time point was chosen for investigating potential interactions between the BRICHOS protein and Aβ, because at this time point Aβ alone would have fibrillated and reached the equilibrium plateau, whereas samples containing 0.1 molar equivalent of proSP-C or Bri2 BRICHOS are still in the lag phase (c.f. FIG. 9). The data in FIG. 11 show clearly that at this time point almost all of Aβ40 is monomeric, while a minor fraction elutes together with proSP-C BRICHOS in fractions 2-6. Similar results are observed for 8 μM Aβ40 and 0.8 μM Bri2 BRICHOS (FIG. 12B). […]

KKAAAAAAAKK = biological target: T2, KKAAAAAAAKK; assay: HDX-MS
T2 construct: Non-substrate peptide; also called A7; KKA7KK
T2 peptide: KKAAAAAAAKK
Procedure: (§1) Deuterated buffers were prepared by three rounds of freeze-drying of the 1 M stock Tris buffer, pH 8, and reconstitution in 99.9% D₂O (Cambridge Isotopes, Andover, Mass.) to a final Tris concentration of 20 mM. To start the incubation at 22° C., CTC (CTproSP-C) stock solution with a concentration of 0.9 mM was diluted in deuterated Tris buffer to a final deuterium content of 92.5%. For CTC/peptide and proSP-C BRICHOS/peptide interaction studies, KKV₇KK, KKV₅KK, or KKA₇KK were pre-incubated with either Tris buffer or proteins, for 10 min at 22° C., and subsequently diluted in deuterated Tris buffer. Final concentrations were 30 μM CTC or proSP-C BRICHOS and 40 μM peptide. The deuterium content was 92.5%. Aliquots of 20 μl were collected in triplicates from three separate incubations after 1, 5, 10, 30, and 60 min. Fully deuterated protein was prepared by freeze-drying a sample of CTC, followed by resuspension in 99.9% D₂O and incubation for 4 h at 50° C. Deuterium exchange was quenched by transferring aliquots to pre-chilled Eppendorf tubes containing 0.5 μL 5% trifluoroacetic acid (TFA) (Merck, Darmstadt, Germany), vortexing, and freezing in liquid nitrogen. Samples were kept in liquid nitrogen until analyzed.
(§2) Aliquots of deuterated CTC were thawed and injected into an HPLC system using a pre-chilled Hamilton syringe. The system was submersed in an ice bath during analysis. […]

KKVVVVVVVKK = biological target: T3, KKVVVVVVVKK; assay: HDX-MS, 30 µM CTC and 40 µM peptide
T3 construct: Substrate peptide; also called V7; KKV7KK
T3 peptide: KKVVVVVVVKK
Procedure: as §1, §2

KKVVVVVKK = biological target: T4, KKVVVVVKK; assay: HDX-MS, 30 µM CTC and 40 µM peptide
T4 construct: Substrate peptide; also called V5; KKV5KK
T4 peptide: KKVVVVVKK
Procedure: as §1, §2

[3] = biological target: the molecule itself; assay: crystal structure, subunit to subunit in the homotrimer
Procedure: Crystals suitable for structure determination were obtained within weeks by means of in situ proteolysis with trypsin. […] The structure presented herein was derived from crystals of seleno-methionylated protein, obtained using the sitting-drop method at 293 K and 277 K, in various concentrations ranging between 0.3-0.7 mM. A single crystal belonging to space group C2 (a=132.05 Å, b=39.33 Å, c=114.76 Å, β=99.6°) was grown from 0.1 M Bis-Tris pH 6.5 and 20% (w/v) PEG MME 5K. The crystal was soaked in 30% (w/v) PEG 400, flash-frozen in liquid nitrogen and used for data collection.
Data to 2.1 Å were collected at the European Synchrotron Radiation Facility, France, using an ADSC Q315 detector on the ID23eh1 beam line. All data were processed in MOSFLM12 and scaled in SCALA13. Data are essentially 100% complete to 2.3 Å Bragg spacing, then drop off rapidly and are only ˜60% complete in the outer resolution shell to 2.1 Å.

T1 sequence (peptide, as listed by the source): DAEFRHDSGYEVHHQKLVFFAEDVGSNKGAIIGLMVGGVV
Aβ(M1-42) (human), sequence (peptide, as listed by the source): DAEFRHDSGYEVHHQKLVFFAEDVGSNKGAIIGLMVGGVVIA

Binder	10-fold increase in lag time of Aβ40 aggregation (ThT fluorescence) (Aβ(M1-40) [1]) [equivalents]	molar ratio above which the lag time of Aβ40 aggregation exceeds one week (Aβ(M1-40) [1]) [molar ratio]	ten-fold increase in lag time of Aβ42 aggregation (ThT fluorescence) (Aβ(M1-42)) [molar equivalents]	koff (Aβ(M1-40) [2]) [s⁻¹]	ratio above which Aβ40 aggregation does not occur within one week (Aβ(M1-40) [1])	binding result (KKAAAAAAAKK)	binding result (KKVVVVVVVKK)	binding result (KKVVVVVKK)	binding result [3]
B1	~0.01	0.025	~0.6	0.001 to 0.01	–	–	–	–	–
B2	~0.03	0.06	~0.6	0.001 to 0.01	10 Aβ40 molecules per 1 proSP-C BRICHOS	–	–	–	–
B3	–	–	–	–	–	no binding (tested: 30 µM CTC and 40 µM peptide)	binds	binds	–
B4	–	–	–	–	–	–	–	–	binds
